Assay [1] concerns the target T1, stabilized SARS-CoV-2 S ectodomain trimer (SARS-CoV-2, Wuhan-Hu-1 (GenBank …, UniProt P0DTC2, stabilised)). Description: SPR. Background: In SPR one partner is held on a chip, and binding of the other changes the refractive index at the surface.
Assay [2] has as its target T1, stabilized SARS-CoV-2 S ectodomain …. Description: cryo-EM structure.

B1: H014 humanized monoclonal antibody (IgG) (antibody, V domains shown)
VH: EVQLVQSGAEVKKPGATVKISCKVSGYSFSNYYIHWVKQAPGKSLEWIGYIDPFNGGTSDNLKFKGAATLTADTSTDTAYMELSSLRSEDTAVYYCARSEYDPYYVMDYWGQGTTVTVSS
VL: IVLTQSPFQSVSPKEKVTITCRASQSISSNLHWYQQKPDQSPKLLIKYASQSISGIPSRFSGSGSGTDFTLTINSLEAEDFGIYFCQQTNFWPYIFGQGTKLEIL
On to B1, for which, in assay [1], the binding result is reported as “binds”.

B2: H014 Fab fragment (Fab, V domains shown)
VH: EVQLVQSGAEVKKPGATVKISCKVSGYSFSNYYIHWVKQAPGKSLEWIGYIDPFNGGTSDNLKFKGAATLTADTSTDTAYMELSSLRSEDTAVYYCARSEYDPYYVMDYWGQGTTVTVSS
VL: IVLTQSPFQSVSPKEKVTITCRASQSISSNLHWYQQKPDQSPKLLIKYASQSISGIPSRFSGSGSGTDFTLTINSLEAEDFGIYFCQQTNFWPYIFGQGTKLEIL
As to B2, the binding result in assay [2] is on record as “binds”.
